In IntAct's records for PubMed 14567693:

B1: Electrogenic sodium bicarbonate cotransporter 1 (Homo sapiens), Q9Y6R1-1 (parent)
chain: MEDEAVLDRGASFLKHVCDEEEVEGHHTIYIGVHVPKSYRRRRRHKRKTGHKEKKEKERISENYSDKSDIENADESSSSILKPLISPAAERIRFILGEEDDSPAPPQLFTELDELLAVDGQEMEWKETARWIKFEEKVEQGGERWSKPHVATLSLHSLFELRTCMEKGSIMLDREASSLPQLVEMIVDHQIETGLLKPELKDKVTYTLLRKHRHQTKKSNLRSLADIGKTVSSASRMFTNPDNGSPAMTHRNLTSSSLNDISDKPEKDQLKNKFMKKLPRDAEASNVLVGEVDFLDTPFIAFVRLQQAVMLGALTEVPVPTRFLFILLGPKGKAKSYHEIGRAIATLMSDEVFHDIAYKAKDRHDLIAGIDEFLDEVIVLPPGEWDPAIRIEPPKSLPSSDKRKNMYSGGENVQMNGDTPHDGGHGGGGHGDCEELQRTGRFCGGLIKDIKRKAPFFASDFYDALNIQALSAILFIYLATVTNAITFGGLLGDATDNMQGVLESFLGTAVSGAIFCLFAGQPLTILSSTGPVLVFERLLFNFSKDNNFDYLEFRLWIGLWSAFLCLILVATDASFLVQYFTRFTEEGFSSLISFIFIYDAFKKMIKLADYYPINSNFKVGYNTLFSCTCVPPDPANISISNDTTLAPEYLPTMSSTDMYHNTTFDWAFLSKKECSKYGGNLVGNNCNFVPDITLMSFILFLGTYTSSMALKKFKTSPYFPTTARKLISDFAIILSILIFCVIDALVGVDTPKLIVPSEFKPTSPNRGWFVPPFGENPWWVCLAAAIPALLVTILIFMDQQITAVIVNRKEHKLKKGAGYHLDLFWVAILMVICSLMALPWYVAATVISIAHIDSLKMETETSAPGEQPKFLGVREQRVTGTLVFILTGLSVFMAPILKFIPMPVLYGVFLYMGVASLNGVQFMDRLKLLLMPLKHQPDFIYLRHVPLRRVHLFTFLQVLCLALLWILKSTVAAIIFPVMILALVAVRKGMDYLFSQHDLSFLDDVIPEKDKKKKEDEKKKKKKKGSLDSDNDDSDCPYSEKVPSIKIPMDIMEQQPFLSDSKPSDRERSPTFLERHTSC
partner: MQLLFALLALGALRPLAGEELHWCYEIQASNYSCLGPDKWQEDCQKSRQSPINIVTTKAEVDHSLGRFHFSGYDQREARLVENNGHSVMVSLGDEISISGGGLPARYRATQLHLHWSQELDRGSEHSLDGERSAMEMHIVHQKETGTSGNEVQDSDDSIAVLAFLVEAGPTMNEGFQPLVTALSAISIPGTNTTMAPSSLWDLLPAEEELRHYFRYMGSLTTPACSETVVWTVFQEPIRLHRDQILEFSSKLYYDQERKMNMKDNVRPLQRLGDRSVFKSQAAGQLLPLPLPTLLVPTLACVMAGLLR

Variants of: B1
Conditions: with cah4_rabit CA4, P48283
For G767T, the “effect of a mutation on the interaction” value was “disrupting interaction”.
